Measurements reported in article PMC3047542, “Structure of HsdS Subunit from Thermoanaerobacter tengcongensis Sheds Lights on Mechanism of Dynamic Opening and Closing of Type I Methyltransferase” (PLoS ONE, 2011).

Molecular target: T1, TTE-HsdS (wild type), specificity subunit of the type I methyltransferase from Thermoanaerobacter … (Thermoanaerobacter tengcongensis, UniProt Q8R9Q6 1-398)
T1 construct: HsdS specificity subunit of Thermoanaerobacter tengcongensis, ORF TTE1545, wild type; 398 amino acids (Met1-Leu398), MW 46.5 kDa; Cloned into site 1 of pET-DUET (with N-terminal His tag); source: E. coli BL21 (DE3), co-expressed with TTE-HsdM (wild type or mutant) from pET-DUET; not shown: His tag, N-terminal, kept
T1 sequence (looked up): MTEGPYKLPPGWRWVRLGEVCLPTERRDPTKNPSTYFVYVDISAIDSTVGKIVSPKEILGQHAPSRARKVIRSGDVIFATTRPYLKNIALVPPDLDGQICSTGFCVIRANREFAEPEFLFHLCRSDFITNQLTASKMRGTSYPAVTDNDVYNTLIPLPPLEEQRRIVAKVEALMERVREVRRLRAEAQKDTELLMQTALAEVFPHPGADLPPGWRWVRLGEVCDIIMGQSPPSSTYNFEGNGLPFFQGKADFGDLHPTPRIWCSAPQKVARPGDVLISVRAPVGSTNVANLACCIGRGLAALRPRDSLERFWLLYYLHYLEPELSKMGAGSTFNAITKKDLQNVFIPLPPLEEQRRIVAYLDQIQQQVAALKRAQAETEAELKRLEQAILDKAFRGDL
Test: AUC; analytical ultracentrifugation of the co-purified wild-type TTE-HsdS/TTE-HsdM complex; molecular weight 165 kDa
Conditions: both partners purified

B1: TTE-HsdM (wild type), modification subunit of the type I methyltransferase from Thermoanaerobacter tengcongensis (natural protein, UniProt Q8R9Q4 1-507, looked up)
chain: MNGPQTRESLANEIWRACDIMRRDNNCTGIMEYVEHLAWLLFLRFLDAQEEEWEAQAQIAGRPYTPIIDSEYRWRHWATKDWPADELLAFVHGRLIPYLRSLGGDPLRETIRSLFSERNVIVCASGYNLKDVIQIVNEINFHSQDDIFTVSQVYEELLRRLGNENRLAGEFYTPRPVVRFVVELVDPQIGEAVYDPACGTCGFLVEAYLWMKQKERTIEDHRILQERTFFGQEKKPVPAFLGLVNMMLHGVTVPRVMRRNTLEENIRNVSERFDVVVTNPPFGGTEGRHIQQNFPIQSNATELLFLQHIMKKLKPRDGARCGMVVPEGTLFRGGAFAEVKRDLLEQFNLHTVVSLPPGTFAPYSDVKTALIFFERPGPTKEIWYYELPLPEGLKKFSKGNPIQDEHFEEARKLWRGWDAYRKGLGPVEACLSERSWIVPVEEVKKRGYDLTARNPNRSGGEELPSPVEIVAGLLEKEREILSIMEELSELLENEKGNSSRKNDEEEE
notes: HsdM modification subunit of Thermoanaerobacter tengcongensis, ORF TTE1547, wild type; MW 58.5 kDa; Cloning site 2 of pET-DUET, without tag; Two copies in the M2S1 complex; Expressed alone it was insoluble
In the case of B1, the “stoichiometry N” value is reported as 2 HsdM per HsdS.
